Assay results: the supplement of paper PMC10567573

B1: FAM164C (parent)
chain: YPHCTGISQQDPESDSQGQGNGLF

Variants of: B1
Experiment: protein stability index of a GFP-peptide fusion (GPS, HEK-293T) (PSI 1-6); higher = more stable
Settings: c terminus: a fixed tail appended
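Note: lentivirally expressed fusions sorted by FACS into six bins by GFP to DsRed ratio, PSI derived from sequencing read proportions per bin multiplied by bin number.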

Variant	protein stability index
YPHCTGISQQDPESDSAGQGNGLF [Q17A]	3.88
YPHCTGISQQDPESDSYGQGNGLF [Q17Y]	3.02
YPHCTGISQQDPESDSFGQGNGLF [Q17F]	2.81
YPHCTGISQQDPESDSKGQGNGLF [Q17K]	3.51
YPHCTGISQQDPESDSTGQGNGLF [Q17T]	3.64
YPHCTGISQQDPESDSRGQGNGLF [Q17R]	3.71
YPHCTGISQQDPESDSVGQGNGLF [Q17V]	3.4
YPHCTGISQQDPESDSQGQQNGLF [G20Q]	3.79
YPHCTGISQQDPESDSQGQINGLF [G20I]	3.02
YPHCTGISQQDPESDSQGQSNGLF [G20S]	3.79
YPHCTGISQQDPESDSQGQFNGLF [G20F]	2.56
YPHCTGISQQDPESDSQGQNNGLF [G20N]	3.48
YPHCTGISQQDPHSDSQGQGNGLF [E13H]	3.4
YPHCTGISQQDPPSDSQGQGNGLF [E13P]	3.51
YPHCTGISQQDPWSDSQGQGNGLF [E13W]	1.9
YPHCTGISQQDPISDSQGQGNGLF [E13I]	3.21
YPHCTGISQQDPGSDSQGQGNGLF [E13G]	3.38
YPHCTGISQQDPVSDSQGQGNGLF [E13V]	3.66
YPHCTGISQQDPESDSQGQGQGLF [N21Q]	4.07
YPHCTGISQQDPESDSQGQGPGLF [N21P]	3.99
YPHCTGISQQDPESDSQGQGSGLF [N21S]	3.78
YPHCTGISQQDPESDSQGQGRGLF [N21R]	3.55
YPHCTGISQQDPESDSQGQGFGLF [N21F]	2.62
YPHCTGISQQDPESDSQGQGTGLF [N21T]	4.04

Variant	protein stability index
YPHCTGISQQDPESDSQGQGCGLF [N21C]	3.65
YPHCTGISQQDPESDSQGQGKGLF [N21K]	3.77
YPHCTGISQQDPESDSQGQGLGLF [N21L]	3.41
YPHCTGISQQDPESDSQGQGMGLF [N21M]	3.35
YPHCTGISQQDPESDSQGQGIGLF [N21I]	3.25
YPHCTGISQQDHESDSQGQGNGLF [P12H]	3.73
YPHCTGISQQDKESDSQGQGNGLF [P12K]	3.57
YPHCTGISQQDYESDSQGQGNGLF [P12Y]	3.54
YPHCTGISQQDGESDSQGQGNGLF [P12G]	3.45
YPHCTGISQQDEESDSQGQGNGLF [P12E]	4.08
YPHCTGISQQDMESDSQGQGNGLF [P12M]	3.6
YPHCTGISQQDDESDSQGQGNGLF [P12D]	3.91
YPHCTGISQQDLESDSQGQGNGLF [P12L]	3.65
YPHCTGISQQDPESDSQSQGNGLF [G18S]	3.77
YPHCTGISQQDPESDSQVQGNGLF [G18V]	3.32
YPHCTGISQQDPESDSQQQGNGLF [G18Q]	3.72
YPHCTGISQQDPESDSQYQGNGLF [G18Y]	3
YPHCTGISQQDPESDSQEQGNGLF [G18E]	4.19
YPHCTGISQQDPESDSQCQGNGLF [G18C]	3.9
YPHCTGISQQDPESDSQMQGNGLF [G18M]	3.19
YPHCTGISQQDPESDSQDQGNGLF [G18D]	3.67
YPHCTGISQQDPESDSQAQGNGLF [G18A]	3.83
YPHCTGISQQDPESDSQKQGNGLF [G18K]	3.5
YPHCTGISQQDPESDSQFQGNGLF [G18F]	2.54

Variant	protein stability index
YPRCTGISQQDPESDSQGQGNGLF [H3R]	3.6
YPFCTGISQQDPESDSQGQGNGLF [H3F]	4
YPLCTGISQQDPESDSQGQGNGLF [H3L]	3.37
YPMCTGISQQDPESDSQGQGNGLF [H3M]	3.46
YPVCTGISQQDPESDSQGQGNGLF [H3V]	4.34
YPACTGISQQDPESDSQGQGNGLF [H3A]	3.75
YPSCTGISQQDPESDSQGQGNGLF [H3S]	3.07
YPECTGISQQDPESDSQGQGNGLF [H3E]	4.58
YPPCTGISQQDPESDSQGQGNGLF [H3P]	3.32
YPHCTGISQQDPEWDSQGQGNGLF [S14W]	3.13
YPHCTGISQQDPEIDSQGQGNGLF [S14I]	3.25
YPHCTGISQQDPELDSQGQGNGLF [S14L]	3.77
YPHCTGISQQDPEEDSQGQGNGLF [S14E]	3.84
YPHCTGISQQDPEMDSQGQGNGLF [S14M]	3.4
YPHCTGISQQDPETDSQGQGNGLF [S14T]	3.71
YPHCTGISQQDPEDDSQGQGNGLF [S14D]	4.2
YPHCTGISQQDPEPDSQGQGNGLF [S14P]	4.28
YPHCTGISQQDPEVDSQGQGNGLF [S14V]	4.3
YPHCTGISQYDPESDSQGQGNGLF [Q10Y]	3.07
YPHCTGISQVDPESDSQGQGNGLF [Q10V]	3.74
YPHCTGISQHDPESDSQGQGNGLF [Q10H]	3.65
YPHCTGISQEDPESDSQGQGNGLF [Q10E]	3.87
YPHCTGISQSDPESDSQGQGNGLF [Q10S]	3.48
YPHCTGISQQDPESDSQGQGNRLF [G22R]	3.78

Variant	protein stability index
YPHCTGISQQDPESDSQGQGNQLF [G22Q]	3.44
YPHCTGISQQDPESDSQGQGNHLF [G22H]	2.97
YPHCTGISQQDPESDSQGQGNKLF [G22K]	3.96
YPHCTGISQQDPESDSQGQGNMLF [G22M]	2.96
YPHCTGISQQDPESDSQGQGNPLF [G22P]	3.95
YPHCTGISQQDPESDSQGQGNLLF [G22L]	2.87
YPHHTGISQQDPESDSQGQGNGLF [C4H]	4.24
YPHDTGISQQDPESDSQGQGNGLF [C4D]	5.02
YPHVTGISQQDPESDSQGQGNGLF [C4V]	4.07
YPHWTGISQQDPESDSQGQGNGLF [C4W]	2.75
YPHATGISQQDPESDSQGQGNGLF [C4A]	3.92
YPHMTGISQQDPESDSQGQGNGLF [C4M]	4.36
YPHKTGISQQDPESDSQGQGNGLF [C4K]	4.39
YPHCTGVSQQDPESDSQGQGNGLF [I7V]	3.82
YPHCTGQSQQDPESDSQGQGNGLF [I7Q]	4.01
YPHCTGNSQQDPESDSQGQGNGLF [I7N]	4.11
YPHCTGYSQQDPESDSQGQGNGLF [I7Y]	2.64
YPHCTGLSQQDPESDSQGQGNGLF [I7L]	3.9
YPHCTGTSQQDPESDSQGQGNGLF [I7T]	3.95
YPHCTGASQQDPESDSQGQGNGLF [I7A]	4.04
YPHCTGDSQQDPESDSQGQGNGLF [I7D]	4.45
YPHCTGMSQQDPESDSQGQGNGLF [I7M]	3.38
